Values of other authors as cited in publication PMC10531495.
Read-outs that look alike come from different tables or passages of the source.

Tests used:
IAPP (Homo sapiens) [1] = biological target: IAPP (Homo sapiens) (UniProt P10997)
IAPP (Homo sapiens) [2] = biological target: IAPP (Homo sapiens) (UniProt P10997); remark: listed apart in the source
IAPP (Homo sapiens) [3] = biological target: IAPP (Homo sapiens) (UniProt P10997); remark: listed apart in the source
IAPP (Homo sapiens) [4] = biological target: IAPP (Homo sapiens) (UniProt P10997); remark: listed apart in the source
[5] = biological target: Aβ monomer (Homo sapiens) (UniProt P05067)

IAPP (Homo sapiens), sequence (P10997 32-73): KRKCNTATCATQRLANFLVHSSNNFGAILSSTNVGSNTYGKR
leucine enkephalin, sequence (P01210 whole entry, looked up): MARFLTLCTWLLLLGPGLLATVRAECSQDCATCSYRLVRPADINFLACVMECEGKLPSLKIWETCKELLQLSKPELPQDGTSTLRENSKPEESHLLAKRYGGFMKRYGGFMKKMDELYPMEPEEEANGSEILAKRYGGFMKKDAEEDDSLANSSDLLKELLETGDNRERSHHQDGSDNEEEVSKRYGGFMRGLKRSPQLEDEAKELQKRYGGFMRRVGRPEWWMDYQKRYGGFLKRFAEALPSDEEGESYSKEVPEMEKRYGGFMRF

Substance: Aβ(1–40) 1-40 (from UniProt P05067)
- Kd (IAPP (Homo sapiens) [1]): 0.0485 µM

Substance: Aβ(25–35) 25-35 (from UniProt P05067)
- Kd (IAPP (Homo sapiens) [2]): 0.282 µM

Substance: Aβ(29–40) 29-40 (from UniProt P05067)
- Kd (IAPP (Homo sapiens) [3]): 0.2 µM

Substance: Aβ(35–40) 35-40 (from UniProt P05067)
- Kd (IAPP (Homo sapiens) [4]): 0.354 µM

Substance: leucine enkephalin (from UniProt P01210)
- Kd [5]: 60 µM
